Where a SMILES comes first, the peptide text is derived from it. [ ]: non-standard residue; d: D form. The star is where a group is joined. 5FAM = O=C1OC2(c3ccc(O)cc3Oc3cc(O)ccc32)c2ccc(C(=O)*)cc21
Key:
[1] = Sedimentation velocity AUC with fluorescence detection, labeled peptide alone; assay type: physicochemical; conditions: AUC-FDS, 60,000 rpm, 20 °C, 15 h, c(s) model; 0.2 μM FITC-D3 in 20 mM sodium phosphate, 50 mM NaCl pH 7.4, 0.0004% PEI; 0.33 μM FITC-Aβ42 in 55 mM Tris, 50 mM NaCl pH 7.4, 0.01% Tw20
Method: All measurements were performed using an XL-A analytical ultracentrifuge (Beckman coulter, Brea, CA, USA). […] All samples were prepared in 20 mM sodium phosphate, 50 mM NaCl (pH 7.4) containing 0.0004% PEI (w/v). Samples were then loaded into 3-mm double-sector titanium cells (Nanolytics, Potsdam, Germany), with each sector containing a 100 μL sample. The detection system uses an excitation laser at 488 nm and an emission cut-off filter at 505 nm to collect fluorescence signals. The amplification factor was adjusted to the same value for all samples for comparability. […] Data was acquired at 20 nm radial resolution. After thorough thermal equilibration the centrifugation was carried out at 60,000 rpm (289,000× g) at 20 °C for 15 h. Carrier proteins, such as albumin and kappa casein, are usually recommended to minimize unspecific surface adsorption for fluorescence-based AUC [56]. All sedimentation profiles were subjected to the software package SEDFIT (version 15.01b) for data evaluation. The data was analyzed with the continuous distribution c(s) Lamm equation model to obtain the sedimentation coefficient distributions. Fitting parameters (Table S1) including the buffer density and viscosity were determined using Sednterp (version 20130813BETA). […]

[2] = biological target: T1, Aβ42 (Homo sapiens, UniProt P05067); assay: Sedimentation velocity AUC with fluorescence detection, Aβ42 and D3 mixtures; assay type: binding
T1 construct: purchased Bachem H-1368.1000
Method: All measurements were performed using an XL-A analytical ultracentrifuge (Beckman coulter, Brea, CA, USA). […] All samples were prepared in 20 mM sodium phosphate, 50 mM NaCl (pH 7.4) containing 0.0004% PEI (w/v). Samples were then loaded into 3-mm double-sector titanium cells (Nanolytics, Potsdam, Germany), with each sector containing a 100 μL sample. The detection system uses an excitation laser at 488 nm and an emission cut-off filter at 505 nm to collect fluorescence signals. The amplification factor was adjusted to the same value for all samples for comparability. […] Data was acquired at 20 nm radial resolution. After thorough thermal equilibration the centrifugation was carried out at 60,000 rpm (289,000× g) at 20 °C for 15 h. Carrier proteins, such as albumin and kappa casein, are usually recommended to minimize unspecific surface adsorption for fluorescence-based AUC [56]. All sedimentation profiles were subjected to the software package SEDFIT (version 15.01b) for data evaluation. The data was analyzed with the continuous distribution c(s) Lamm equation model to obtain the sedimentation coefficient distributions. Fitting parameters (Table S1) including the buffer density and viscosity were determined using Sednterp (version 20130813BETA). […] Final graphs were generated using GUSSI (version 1.2.1) and sedimentation coefficients were standardized to s-values in pure water at 20 °C (s20,w).

[3] = biological target: T1, Aβ42; assay: ThT assay, fibrillation kinetics of Aβ42; assay type: biochemical; conditions: 50 mM NaCl pH 7.4, 20 °C, AmyloFit fit, triplicate
Method: ThT was added at a final concentration of 5 μM in all samples. The final volume of each sample was 200 μL. Samples were prepared on ice and were pipetted into a 96-well plate afterwards. The plate was sealed with a microplate sealing film. All measurements were conducted at 20 °C with a microplate reader (Infinite M200, Tecan, Männedorf, Switzerland). The fluorescence was recorded at an excitation wavelength (λex) of 445 nm and an emission wavelength (λem) of 485 nm every 30 min for 120 h. […] All samples were prepared in triplicate.
The ThT data was then subjected to the online server AmyloFit with a customized sigmoidal Equation (1) to determine the lag time tlag , and the half completion time of the aggregation process t1/2 , according to previous studies. (1) It=k0t+A/1+exp−kt−t1/2, where k0 represents the slope of the baseline, A is the amplitude, k denotes the apparent elongation rate constant. The lag time tlag can be derived from the intercept between the time axis and the tangent with slope k from the midpoint of the fitted sigmoidal curve, which is given by the following Equation (2):(2) tlag=t1/2−2/k

[4] = 20 μM Aβ42 with (label D3, 10:1) or without (label Aβ42) 2 μM D3, 55 mM Tris-HCl

T1 sequence (P05067 672-713 limits assumed): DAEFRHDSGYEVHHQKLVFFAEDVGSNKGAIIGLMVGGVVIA

CC(C)C[C@@H](NC(=O)[C@@H](CCCNC(=N)N)NC(=O)[C@H](NC(=O)[C@@H](CCCNC(=N)N)NC(=O)[C@H]1CCCN1C(=O)[C@H](N)CCCNC(=N)N)[C@H](C)O)C(=O)N[C@H](Cc1c[nH]cn1)C(=O)N[C@@H](C(=O)N[C@H](Cc1c[nH]cn1)C(=O)N[C@H](CCCNC(=N)N)C(=O)N[C@H](CC(N)=O)C(=O)N[C@H](CCCNC(=N)N)C(=O)N[C@@H](CCCCNC(=O)c1ccc2c(c1)C(=O)OC21c2ccc(O)cc2Oc2cc(O)ccc21)C(N)=O)[C@H](C)O [FITC-D3] (H-[dR][dP][dR][dT][dR][dL][dH][dT][dH][dR][dN][dR]K(5FAM)-NH2; N-terminus and C-terminus assumed)
Sedimentation coefficient s20,w of the labeled peptide alone [1]: 0.54 ± 0.02 S
s20,w of the main peak of FITC-D3 with Aβ42 ([2]; 0.2 μM FITC-D3 with 50-fold excess of Aβ42, 20 mM sodium phosphate, 50 mM NaCl pH 7.4, 0.0004% PEI, interpreted as 1:1 complex): 0.71 ± 0.04 S
Averaged s20,w of the new species between 1 and 2 S, FITC-D3 with Aβ42 ([2]; 0.2 μM FITC-D3 with Aβ42, c(s) analyses from five independent experiments, complexes with higher stoichiometries): 1.45 ± 0.08 S

Aβ42: unlabeled amyloid-β peptide 42, Bachem product No. H-1368.1000 [reference compound]
Lag time tlag of fibrillation kinetics ([3]; 20 μM Aβ42 with (label D3) or without (label Aβ42) 2 μM D3, 20 mM sodium phosphate, 5 μM ThT): 17.3 ± 1.6 h
Lag time tlag of fibrillation kinetics, Tris-HCl buffer [3, 4]: 14.5 ± 1.4 h
Slope k of fibrillation kinetics, Tris-HCl buffer [3, 4]: 0.13 ± 0.01

— article PMC6600523, “Interference with Amyloid-β Nucleation by Transient Ligand Interaction” (Molecules, 2019)
